The target in assay [1] is Crotalus durissus terrificus (C.d.t.) venom. The experiment in a line: ELISA on C.d.t. venom; dilution 1:312,500.
Assay [2] has the same target. As to the kind of experiment: ELISA on C.d.t. venom; dilution 1:62,500. (In general: ELISA stands for enzyme-linked immunosorbent assay.)

For the substance preimmune IgY (antibody), the figures for the ELISA absorbance in assay [1] and in assay [2] were 0.01 absorbance and 0.001 absorbance, respectively.

For the origin of these results see US20040142455A1.
